Data: PMC6042154 (Proceedings of the National Academy of Sciences of the …, 2018)

Molecular target: the molecule itself
Assay: native MS

B1: outer membrane porin F (OmpF) (natural protein)
chain: AEIYNKDGNKVDLYGKAVGLHYFSKGNGENSYGGNGDMTYARLGFKGETQINSDLTGYGQWEYNFQGNNSEGADAQTGNKTRLAFAGLKYADVGSFDYGRNYGVVYDALGYTDMLPEFGGDTAYSDDFFVGRVGGVATYRNSNFFGLVDGLNFAVQYLGKNERDTARRSNGDGVGGSISYEYEGFGIVGAYGAADRTNLQEAQPLGNGKKAEQWATGLKYDANNIYLAANYGETRNATPITNKFTNTSGFANKTQDVLLVAQYQFDFGLRPSIAYTKSKAKDVEGIGDVDLVNYFEVGATYYFNKNMSTYVDYIINQIDSDNKLGVGSDDTVAVGIVYQF
- stoichiometry N: 3
